The experiment addresses TNFR1 on human umbilical vein endothelial cells (HUVEC) (human) (UniProt P19438).
Sequence of UniProt P19438 (P19438 30-455): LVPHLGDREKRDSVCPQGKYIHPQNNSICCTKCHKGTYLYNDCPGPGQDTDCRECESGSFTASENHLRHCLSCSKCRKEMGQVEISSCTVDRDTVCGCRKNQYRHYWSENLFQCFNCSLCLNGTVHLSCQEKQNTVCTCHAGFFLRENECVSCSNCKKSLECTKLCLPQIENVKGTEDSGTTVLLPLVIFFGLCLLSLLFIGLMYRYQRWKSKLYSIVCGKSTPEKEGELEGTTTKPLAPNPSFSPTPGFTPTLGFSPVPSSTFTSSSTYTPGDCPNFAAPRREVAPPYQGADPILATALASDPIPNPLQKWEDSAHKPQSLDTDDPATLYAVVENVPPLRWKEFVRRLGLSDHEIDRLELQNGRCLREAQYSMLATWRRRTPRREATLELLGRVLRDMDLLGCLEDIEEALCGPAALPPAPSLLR

Sequence of DOM1h-131-206 (VH): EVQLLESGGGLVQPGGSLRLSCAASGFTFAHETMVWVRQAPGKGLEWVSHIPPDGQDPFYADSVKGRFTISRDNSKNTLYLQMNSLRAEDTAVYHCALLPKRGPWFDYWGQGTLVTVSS

DOM1h-131-206: the IC50 (read off the curve) [b] worked out at 0.5 nM.

The record behind these values is US20140112929A1.
